In PMC8262886, “The Breadth and Molecular Basis of Hcp-Driven Type VI Secretion System Effector Delivery” (mBio, 2021):

Biological target: the molecule itself
Experiment: negative-stain electron microscopy; purified Hcp1-His diluted to 0.01 mg/ml, 2% uranyl acetate, 2D class averages with top and side views

B1: Hcp1-His (natural protein)
chain: MAVDMFIKIGDVKGESKDKTHAEEIDVLAWSWGMSQSGSMHMGGGGGAGKVNVQDLSFTKYIDKSTPNLMMACSSGKHYPQAKLTIRKAGGENQVEYLIITLKEVLVSSVSTGGSGGEDRLTENVTLNFAQVQVDYQPQKADGAKDGGPVKYGWNIRQNVQA
notes: Hcp1 of Pseudomonas aeruginosa, the Hcp of the H1-T6SS; also called His-tagged version of Hcp1; source: E. coli BL21(λDE3), from pACYCDuet-1; coexpressed with an effector, in lysate, copurified (Ni-NTA, SEC); also purified alone (Ni-NTA, SEC); not shown: His, C-terminal, kept
B1: binds.
